This note sets out measurements from article PMC2665237.

Numbering of substitutions follows the chain as printed. Where two headings read alike, the source gives them in different places.

One series has as its target T1, LGP2 RD K634E (human, UniProt Q96C10 537-678, K634E).
T1 sequence: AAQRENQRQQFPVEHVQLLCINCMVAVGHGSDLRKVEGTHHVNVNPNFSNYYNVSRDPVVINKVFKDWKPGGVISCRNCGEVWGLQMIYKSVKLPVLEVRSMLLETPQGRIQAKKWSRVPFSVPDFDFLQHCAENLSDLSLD
The series can be described thus: fluorescence anisotropy. Background: Fluorescence polarisation rises when a labelled molecule tumbles more slowly, as on binding a larger partner.

Another series concerns the target T2, LGP2 RD K626E (human, UniProt Q96C10 537-678, K626E).
T2 sequence: T1 sequence with K90E, E98K
The series can be described thus: fluorescence anisotropy.

For the next series, the target named is T3, LGP2 RD K605E (human, UniProt Q96C10 537-678, K605E).
T3 sequence: T1 sequence with K69E, E98K
The series can be described thus: fluorescence anisotropy.

Another series concerns the target T4, LGP2 RD N583D (human, UniProt Q96C10 537-678, N583D).
T4 sequence: T1 sequence with N47D, E98K
Briefly: fluorescence anisotropy.

A further series has as its target T5, LGP2 RD L621A (human, UniProt Q96C10 537-678, L621A).
T5 sequence: T1 sequence with L85A, E98K
Briefly: fluorescence anisotropy.

Another series deals with T6, LGP2 RD P606K (human, UniProt Q96C10 537-678, P606K).
T6 sequence: T1 sequence with P70K, E98K
Briefly: fluorescence anisotropy.

A further series has as its target T7, LGP2 RD H576Y (human, UniProt Q96C10 537-678, H576Y).
T7 sequence: T1 sequence with H40Y, E98K
The series can be described thus: fluorescence anisotropy.

The target in another series is T8, LGP2 RD W604A (human, UniProt Q96C10 537-678, W604A).
T8 sequence: T1 sequence with W68A, E98K
The series can be described thus: fluorescence anisotropy.

Series [1] concerns the target T9, LGP2 RD wt (human, UniProt Q96C10 537-678).
T9 sequence: T1 sequence with E98K
The series can be described thus: fluorescence anisotropy.

For series [2], the target named is T9, LGP2 RD wt. Briefly: competition.
The target of series [3] is T9, LGP2 RD wt. The series can be described thus: competition. This is another data set of the same source.

B1: 25 bp dsRNA (dsRNA)
RNA 1: GCUUGUCGGGAGCGCCACCCUCUGC
RNA 2: GCAGAGGGUGGCGCUCCCGACAAGC
A word on the Kd: it is the free concentration of one partner at which half of the binding sites on the other are occupied at equilibrium, for simple one-to-one binding. A lower Kd goes with higher affinity. Consider B1, for which the binding result with LGP2 RD K634E is “no binding”. Moreover, the Kd with LGP2 RD K626E turned out to be 51 ± 5 nM; with LGP2 RD K605E, 140 ± 16 nM; with LGP2 RD N583D, 38 ± 4 nM; with LGP2 RD L621A, 165 ± 26 nM; in the series with LGP2 RD P606K, 230 ± 10 nM; in the series with LGP2 RD H576Y, 304 ± 10 nM. Moreover, the dissociation constant (Kd) with LGP2 RD W604A amounted to 136 ± 6 nM; with LGP2 RD wt [1], 68 ± 6 nM.

B2: 5'PPP dsRNA 19 bp (dsRNA)
RNA 1: GCAUGCGACCUCUGUUUGA
RNA 2: UCAAACAGAGGUCGCAUGC
modifications: 5'-triphosphate on sense strand
As to B2, the binding result in the series with LGP2 RD wt [2] is on record as “binds”.

B3: 5'OH dsRNA 19 bp (dsRNA)
RNA 1: GCAUGCGACCUCUGUUUGA
RNA 2: UCAAACAGAGGUCGCAUGC
With B3, the binding result with LGP2 RD wt [3] is “binds”.
